{
  "source": "the DeepSol protein solubility set",
  "data": [
    {"assay": "soluble on expression in E. coli; label from the status in PepcDB or PDB records", "values": [
      {"sequence": "MRKGINMTAELLVNVTPSETRVAYIDGGILQEIHIEREARRGIVGNIYKGRVSRVLPGMQAAFVDIGLDKAAFLHASDIMPHTECVAGEEQKQFTVRDISELVRQGQDLMVQVVKDPLGTKGARLTTDITLPSRYLVFMPGASHVGVSQRIESESERERLKKVVAEYCDEQGGFIIRTAAEGVGEAELASDAAYLKRVWTKVMERKKRPQTRYQLYGELALAQRVLRDFADAELDRIRVDSRLTYEALLEFTSEYIPEMTSKLEHYTGRQPIFDLFDVENEIQRALERKVELKSGGYLIIDQTEAMTTVDINTGAFVGHRNLDDTIFNTNIEATQAIARQLRLRNLGGIIIIDFIDMNNEDHRRRVLHSLEQALSKDRVKTSVNGFSALGLVEMTRKRTRESIEHVLCNECPTCHGRGTVKTVETVCYEIMREIVRVHHAYDSDRFLVYASPAVAEALKGEESHSLAEVEIFVGKQVKVQIEPLYNQEQFDVVMM", "soluble on expression in E. coli": "not soluble"},
      {"sequence": "MRKIRLVYRRFPNRVIMREDEVIEDFGDVIVAKSEFTGMLAPLRVNGVEVINNGYKMVYFAFIGRDFDVLKIYDPSGNFKGLYVDVLDYTRREGNTVEILDLFLDIFIFPEGEYYLLDEDELEMAFNYGIISREKLLKAYDTAERIIGQIKRGKFPPKIVWEYSL", "soluble on expression in E. coli": "not soluble"},
      {"sequence": "MRKLTLPKDFLWGGAVAAHQVEGGWNKDGKGPSICDVLTGGAHGVPREITQNVVAGKYYPNHEAVDFYGHYKEDIRLFAEMGFKCFRTSIAWTRIFPNGDESQPNEAGLKFYDDMFDELLKYNIEPVITLSHFEMPLHLVQHYGGWTNRKVVDFFVRFAEVVFERYKHKVKYWMTFNEINNQRNWRAPLFGYCCSGVVYTEHENPEETMYQVLHHQFVASALAVKAARRINPQMKVGCMLAMVALYPFSCKPEDVMFAQESMRERYVFTDVQLRGYYPSYVLNEWERRGFNIKMEDGDLEVLREGTCDYLGFSYYMTNAVKAEGGSGDAISGFEGSVPNPYVKASDWGWQIDPVGLRYSLCELYERYQKPLFIVENGFGAYDKVEEDGSINDDYRIDYLRAHIEEMKKAVTYDGVDLMGYTPWGCIDCVSFTTGQYSKRYGFIYVNKHDDGTGDMSRSRKKSFNWYKEVIASNGEKL", "soluble on expression in E. coli": "not soluble"},
      {"sequence": "MRKNKLSFKEKAGAEQEECLCFCEGEASREAMFQAPIELPEGFVVDPAEAVANVTWNADSLSCVSDRCLIQTGPEPDEVGVQFAVRLQGTVTLLVSVSPVRNQYGQGDGAVSVIHNAEIDQVVYYSDESDDCPDISDITIENLVVVPPFYGSPLSVTGTIVLVPEPEPVYAFTANPNDQSVSVIDTNTDTVVTTIALPYNPAGIEITPDKSAVFVLHPNNNVISVIDYDTLTVTATILLDQPPRLIRFIPNHEFAYVFTGTAVYVIGIDTLTVDRSIPVEGYDVAIDPNGLFAYVLNFGIVQKVDLTTGEVTGTIERELIVSTIETNWPERYAYVLEQEFFFNYLTVIDLNTFTISSTQELEYEGEYRMFTSGAEVYLYDGFTGNLYSVSPNGAGVIGNVPQSATDYAFTPNGDFLYATRFIEQSIIVYNTDDYSEETVISLGVSPGAITILEHHHHHH", "soluble on expression in E. coli": "soluble"},
      {"sequence": "MRKQLPVICVAAGIVLLAACTNDGGQQQTTVAPQPAVCNGPTVEISGAEPRYEPLNPTANQDYQRDGKSYKIVQDPSRFSQAGLAAIYDAEPGSNLTASGEMFDPMQLTAAHPTLPIPSYARITNLANGRMIVVRINDRGPYGTDRVISLSRAAADRLNTSNNTKVRIDPIIVAPDGSLSGPGMACTTVAKQTYALPPRPDLSGGMGSASSAPAQPQGDVLPVSNSTLKSDDTTGAPVSSSGFLGAPTTLAPGVLESNEPTPAPQPAPVSAPVAAPATAPATATPVSAPAAAAPVSAPVSAPAAAASGRFVVQVGAVSDQTRAQQYQQRLSQQFSVPGRVIQNGAVWRIQLGPFASKAEASALQQRLQTEAQLQSFIASAQ", "soluble on expression in E. coli": "not soluble"},
      {"sequence": "MRKRARIIYNPTSGKELFKRVLPDALIKLEKAGYETSAYATEKIGDATFEAERALESEYDLLIAAGGDGTLNEVVNGIAEQPNRPKLGVIPMGTVNDFGRALHLPSDIMGAIDVIIDGHTTKVDIGKMNNRYFINLAAGGKLTQVSYETPSKLKSIVGPFAYYIKGFEMLPQMKAVDVRIEYDDNIFQGEALLFLLGLTNSMAGFEKLVPDAKLDDGYFTLIIVEKANLAELGHIMTLASRGEHTKHPKVIYAKAKSINISSFTDMQLNVDGEYGGKLPANFLNLEQHIEIFTPKDVFNEELLENDTITDITPDKQ", "soluble on expression in E. coli": "not soluble"},
      {"sequence": "MRKRKPLDYYLSLKYPVLLVAEPEGGYTALHPDLEGCVSVGETPEEALANLEEARRLWLEAAYEHGDEIPLPSTEREYSGRVLVRMPKSLHRRLDEEAKAEGVSLNQYIVSLPAERSSLRALKRELTRTGRAAEAPDSWEWGTSSGGGIWTGVLA", "soluble on expression in E. coli": "soluble"},
      {"sequence": "MRKTKTEALKTKEHLMLAALETFYRKGIARTSLNEIAQAAGVTRGALYWHFKNKEDLFDALFQRICDDIENCIAQDAEDAEGGSWAVFRHTLLHFFERLQSNDIYYKFHNILFLKCEHTEQNAAVIAIARKHQAIWREKITAVLTEAVENQDLADDLDKETAVIFIKSTLDGLIWRWFSSCERFDLGKTAPRIIGIMMDNLENHPDLRRK", "soluble on expression in E. coli": "soluble"},
      {"sequence": "MRKTLNVVVNGERTEIVTYKGTVQGALHDNGITLAPKDKVTPSLESKISKNETITINKAVNVKVKTEDGEKEIVSAEDNVEDMLKSEGISFDDDDKILPDKKESLKDGMNVEVVKVDVKKVTEVHPIEFTTEVKKDESKPQTYTEVLNDGQDGEKKVTRELVYENGKEVSNNVIQELVVKEPVNKEVVKGTKETQTLSRGGESINFKKKLSVKSTAYNHPLGSAEAYTASGMHVLRDPNGYSTIAVDPSVIPLGTKLYVEGYGYAIAADTGGAIKGNRVDLFFNTEAEASNWGVRNLDVYILNLEHHHHHH", "soluble on expression in E. coli": "soluble"},
      {"sequence": "MRKYSQRHIPVMVREVIEFLKPEDEKIILDCTVGEGGHSRAILEHCPGCRIIGIDVDSEVLRIAEEKLKEFSDRVSLFKVSYREADFLLKTLGIEKVDGILMDLGVSTYQLKGENRGFTFEREEPLDMRMDLESEVTAQKVLNELPEEELARIIFEYGEEKRFARRIARKIVENRPLNTTLDLVKAVREALPSYEIRRRKRHFATKTFQAIRIYVNRELENLKEFLKKAEDLLNPGGRIVVISFHSLEDRIVKETFRNSKKLRILTEKPVRPSEEEIRENPRARSGRLRAAERIEEGGD", "soluble on expression in E. coli": "soluble"},
      {"sequence": "MRLCSVALLLFTVAYVKSAIDINVPSTLYIKEGDTGTIGLPVSANYRREVHNPKGTMDEQLYRVCNGKNKTTCGFWEDVKTKKKVKSGVTTYNKNKKALVIKKMLVSDFGNYMTGNKKKSRYVQQLVSLGK", "soluble on expression in E. coli": "not soluble"},
      {"sequence": "MRLEECNILFELLTEIQDEAGSMEKIVHKTLQRLSQLLAADRCSMFICRSRNGIPEVATRLLNVTPTSKFEDNLVNPDKETVFPLDIGIAGWVAHTKKFFNIPDVKKNNHFSDYLDKKTGYTTVNMMAIPITQGKEVLAVVMALNKLNASEFSKEDEEVFKKYLNFISLVLRLEHHHHHH", "soluble on expression in E. coli": "soluble"},
      {"sequence": "MRLFLLLLSLLLISITTAFALDKPDGSNSIEDQTALFFGKDDRTAVTNSRQWPWEAIGQVETASGNPCTATLISPRLVLTAGHCVLTPPGNIDQAVALRFISDKGHWKYQITDLKTRVDAKLGQKLKADGDGWIVPPAAAAYDFALIQLTNAAPIPIKPLPLWEGTANELTKALKLVNRKVTQAGYPLDNLNTLYKHEDCLVTGWAQQGVLAHQCDTLPGDSGSPLLLKNGNSWSLIAIQSSAPAAKERYLADNRALSVTAINNRLKKLVNKIADTTQ", "soluble on expression in E. coli": "not soluble"},
      {"sequence": "MRLYLLAFLALFGMNAMAADNWKAFPYDQSAYDYPGDKLKEAWPRLTRGFGDYPYPDADWVVNMATAHPDALEKTVKAGTGFTGKPEEAAQYAARLQDVWRLLFRGDYAKAKEQGLALGVGGQVPAMFAQVLYAMFLAPGQAEKQRLLEEVIDYTEQAGPLVKADIVAQFGSVYAKARLAEELSVPVVLKRGYTSEIPKELDALLARQPNQPFALALYGGYEAGVIRKVGKLVGKMTYGVSADKMEQYFARSFRQANDLPIGHYEYANALTYVYGDDEREKAIAQLKQAVAIKPINAMEALEVAHAKKLLAGFEQNTAQR", "soluble on expression in E. coli": "not soluble"},
      {"sequence": "MRPGWIAADWGTSRLRVWAMGAEGVLAEARSDEGMGQIAVGGFEAALLRLIGLWLSDGPAVQVVICGMAGARQGWQEVPYRRLPCAPVDPQALVPVPSEDPRIAVRIVPGLAQAKPADVMRGEETQIAGALALLGSFDGVICLPGTHSKWAQVSAGEVVSFRSFLTGELFALLSERSVLRHGLAAEGWDDEAFLAAVSDGMSHPQKLGAKLFGLRAEALLQDLPPATARARLSGLLIGLELVGARSYWLGQPVVLVGEEALAARYGAALAAQGVQARLLPAAACTLGGLAAAVGQLTLASSGAGRKA", "soluble on expression in E. coli": "not soluble"},
      {"sequence": "MRPPRPPRPPSPQRSAELRRRFAQEARSERPDLATLCLLVGAEADGTLDEAGLDAAQVELDRLAGELPFRPGTPRAWAVALRDLLGERYGFHGVAADYQRLESSLLHEVVRRRRGLPILLSVVWLEVARRAGAPVYGVALPGHFVVGFGGESAAASGPGSAPLGERVLVDPYDGGRLLSGTDAEALVAGATGAELRASMLEPAAPLDVVARVLNNIRAWAAARPEQSAVGLWAVELALLLPAHAARLRYERAVLLVQRGEFAAGAGELEAYAEVVEAVDEAVAEEVRGEARTARAMLN", "soluble on expression in E. coli": "not soluble"},
      {"sequence": "MRQCTPFDTLLVFYSTWPVLKNILTNKIMPAELESVRTRQIVALRTMINLNEPVVNSGVREPVWKVLVLDRTGQDIISPLLPVKQLRELGVTLHLLIGARREPLTDVPAVYFVSPNDENIDLMSEDLKKAMYDSFYCNFISPLARPRLESLASAAVHGGAVSQVQKVVDQYLNFISLEDDLFVLRRYSENSTFSYHAMNSPGTSDVAVNAMLDSIADGLFAVCATMGIVPIIRCPKGNAAEMVAKKLDQKLRDNLRDSRNNLFTMDGVRMGLLQTSRPLLVIGDRSADLATMLHHTWTYQALMHDVLELDQNRVTISTSSTGKKKDYDMATGGSDKLWNNHKGSAFPTVAEAVQENLDDYRSKEDDIKKIKQALGLSGESEAADEALTNVLADTTAKLGSTVMSLPDLLESKRLIDLHTNIATTLLDVIKERKLDVSLSSSKSCCNTHRLVDLFYQPVTQFLSNINHQEDVLRVLIIAFLCQETVNQNGYDQMMNLLRERGIEESALKHVQKLKSISQLGSRAANSAHTEEHQGAGTKTISMFGKLLSHSSKFVMEGVKNLVPKEHNLPLTKMIDSLNTPPSSTGISSAVGINQMIGGSSQGPDIDDIYCFFDPKLMHQPTKETILLARQQSAQDVILFVVGGGNYVEYQNLVDYGKRKNLMRVTYGCTELVNPAQFCDQVSCCSLSLPLTDLSGDSPYFFCSPLEF", "soluble on expression in E. coli": "not soluble"},
      {"sequence": "MRQGGIYQTKDANKGPVTVPPLRTKTPPPPPPPVRRHEIYEQHKRYTSAPNLQSAVIRIQDDKPRSIMKRNDLVRREQMLYPTVDTQVVKSVVKKPTVTETVQRFEETRRTEEVERRVQRREKKERRSRHHSSSRHHSGWEGHTGGYQEYRQGAITSSLPRRQIIREADRAMTEEEMNKVVREAYAAADEARKDSRHRSSSLSRGGHGGGGQETYYRQETTRRQQHNNYDDNFNRGIAHARYGSLSDSLRRGELQYVPNGEVRQSFYRDGSNGGQRMHKSYSTRDVFTGDGYDDRRSVSSFRRGSQQQVSPFVEFPPTLPRRGGGGDYRREEDAYFRPVSKSRSYADWDDAGRAGMGREVRRYDDDMSRLEAEFRDSLLMPMPAGNMNERDHRTEQLPGGYETFNKERHANSGRRSGRDGKPVDFNEATQEYNYKREQTLNDDRRRR", "soluble on expression in E. coli": "not soluble"},
      {"sequence": "MRRESYRERALVVRSYDFGEADRIIVLFTRGRGIVRGVAKGVRRAKSRFGSRLQPFVELDVQLYRGRNLESITAADTVAYFGAKIIDDVTRFSAASSILEGVEKLAVGDEPRLFDLTVTALKNMQSCAHPVAEVDTFLLQGMNIAGWAPSLFDCAQCGASGPHHAFHPSPGGAVCVHCRPLGAQEVDPETLHMMWLMAQGHRDAVAEIGTPERYQQAHALIRSHLSWHVERGLASLNVLDQV", "soluble on expression in E. coli": "not soluble"}
    ]}
  ]
}
